Measurements reported in the DeepSol protein solubility set.

Assay: soluble on expression in E. coli; label from the status in PepcDB or PDB records

Row | Sequence | soluble on expression in E. coli
1 | MKRLTAKEEEIMGFFWEKGPLFVKEILAFYDEPRPHFNTLSTIVRGLEEKGFLAHHTYGNTYQYYAVVSESDFSKRTLKSVISKYFNNSYLSAVSSLVKEEDISLDDLKKLIQEVEQKNEE | soluble
2 | MSLPPILTSQIGPDSIELRLLVAADLEYFNGHFPEQAVLPGVTQLDWAVRLGCEHFGYSAAVANLEVLKFQQLILPGQEVTLVISHNATKEKLTFAYSDGDHRYASGRISFASKQDDGLEHHHHHH | not soluble
3 | MNQPIGIADSSRPKTNVRLTISANNLMDLDVFSKSDPICLIYEKTSGRKATTTEEITVPTWKDKQWTERGRTEVVMNNLNPQFTKTFLLPYFFEETQLLRFEIYDADSPTVGQDLSSHDFLGRFECVLAQIVSYSTLKAHLGKTGQIGAQWRNKDKNTKTGSITIYAEEDEKAEKIQFDVCGEGLDKKDFFGKSDPYLNFKRKFDDGSTHLIHRTEVKPKTLDPRWATVQINTQTLCAKDGDRPIIIECYDHDKWKKGEEPRGDAKFSRDDLIGTAQTTLNELLRGSSDAVEILLTNEKKKAKKGDKYKCSGTLKIWNSRIVIEPTFLDFISGGTQLDFAVAVDFTASNGPPKSSSSLHFMSADRPNQYELALRSVLSICQHYNSSKTFEAFGFGAKLPNQSSVSAIFPLDLQRGTSEVVGITGVMTAYRHALSNVQLYGPTNFAPIIENVARKAQNMIHDSARYQILLIITDGIISDMHATIRSIISASGLPLSIIIIGVGNEDFEKMHELDSDDALLQQDSRIAQRDIVQFVTMREFLNNGQGLYLDPDVIQENLAREVLYEVPAQLTGYMKQRGFQPRPVDDPWRRDSPPPEFDPILDGTGRRAPMLQAPPAGFQYPVYADTSIASAPPMY | not soluble
4 | MSLETQDHTLYVLLGPTGVGKTDLSLDIAERLGSPIISADSRQIFRELPIGTAAPTPEQRARVPHLFVGTHSVRDYYSAGMYEVEVLEALKELFRKYRGVLLTGGSMMYIDAVCRGIDDIPDPFPEVREELYARYAAEGLDGILAQLRLLDPDYYAKVDRRNYKRVIHGLEICLSTGRPFSSFHRHEAKERPFRIVKIGLYREREELCKRIDARVLEMMEQGLEEEARAVYPLRHLNALNTVGYKEMFEYFDGSIDRAEAVRRIQRNSRVYARKQMTWFRRDSTIRWFHPEADKGTVLTLVTEGHHHHHH | soluble
5 | MKFLPLLALLISPFVSALTLDDLQQRFTEQPVIRAHFDQTRTIKDLPQPLRSQGQMLIARDQGLLWDQTSPFPMQLLLDDKRMVQVINGQPPQIITAENNPQMFQFNHLLRALFQADRKVLEQNFRVEFADKGEGRWTLRLTPTTTPLDKIFNTIDLAGKTYLESIQLNDKQGDRTDIALTQHQLTPAQLTDDERQRFAAQ | not soluble
6 | MSLKIAEMDSNSAVMAAQNEVIRGEIKDRDGNVLAKSTKSGDLTQKREYPYGEIYSHPIGYASGIYGNAGLEGAYSKELTTYENVSLKAFLKSFNLKKDFKERNESDKKVGNSIVTTLDTDLQKAAYAALGANRGAVVALDPKTGAVLASVSKPGFNPNNMKETYEIANNPNGNPKDAILVDRALNGQYPPGSTFKVVTLTSALENLPGVTERTFNDTGSINVGTKDLPNENGNAYGNISLRKALSVSSNVIFGGILGEELGNKKLRETAEKYGFNKDLYLGNLKAYSGSFPDRKTVDKGLIAYDAIGQGEVLSSPIEMAMVAATVANNGVRMEPYIVSKVVDKDGDTVKEFSSTKKDTVMSKEQAQIINEYMQGVAKDRINDNWGYFKGMNVAAKTGTAQVPDGNSHAWLIAFAPADDPKIAVATIVENGGSGSKVAAPVTARVMQAYFNEGHHHHHH | soluble
7 | MSLKALHFGAGNIGRGFIGKLLADAGIQLTFADVNQVVLDALNARHSYQVHVVGETEQVDTVSGVNAVSSIGDDVVDLIAQVDLVTTAVGPVVLERIAPAIAKGQVKRKEQGNESPLNIIACENMVRGTTQLKGHVMNALPEDAKAWVEEHVGFVDSAVDRIVPPSASATNDPLEVTVETFSEWIVDKTQFKGALPNIPGMELTDNLMAFVERKLFTLNTGHAITAYLGKLAGHQTIRDAILDEKIRAVVKGAMEESGAVLIKRYGFDADKHAAYIQKILGRFENPYLKDDVERVGRQPLRKLSAGDRLIKPLLGTLEYGLPHKNLIEGIAAAMHFRSEDDPQAQELAALIADKGPQAALAQISGLDANSEVVSEAVTAYKAMQEGGSHHHHHH | soluble
8 | MGSDKIHHHHHHMPRKTTSLCRRILLENYTTRGEKMITNLSDRVFVIGTGTSANSVLVCGKKFCVLFDSTLFPEKARKIKEFAAEILGKEIAVVFNTHYHPDHTFGNEVFDRIISHSLTRKSLEEMDEEYIRKIGVEVSLKFPDETFSERENYRFGDIVVEAVHLGGHTPDSSIFVLKNEKIVICGDLLTTGIHAEIVTDSDLFGWIEALSEIEKIRADYFVPGHGKVGTIEDVRNMKDYISKVLRFREGSVKHSELLEDPNFINREHPELLTWGLENIIR | not soluble
9 | MSQVQSGILPEHCRAAIWIEANVKGEVDALRAASKTFADKLATFEAKFPDAHLGAVVAFGNNTWRALSGGVGAEELKDFPGYGKGLAPTTQFDVLIHILSLRHDVNFSVAQAAMEAFGDCIEVKEEIHGFRWVEERDLSGFVDGTENPAGEETRREVAVIKDGVDAGGSYVFVQRWEHNLKQLNRMSVHDQEMVIGRTKEANEEIDGDERPETSHLTRVDLKEDGKGLKIVRQSLPYGTASGTHGLYFCAYCARLHNIEQQLLSMFGDTDGKRDAMLRFTKPVTGGYYFAPSLDKLMAL | soluble
10 | MAYVTLYPNLILEALGKVRYPGTGKDLVSAGMVEDDIRIDGNKVSFSLIFDKANDPFIKSVVKAAESAILTYISEDVNIKGNISVKSKQAIPAPPAKLLPGVKNIIAVFSGKGGVGKSTVTANLAVSLAKSGYRVGLLDADIFGPSMPKMFHCEESRPVLEEVDGRELIVPEEVMGVKILSIGFFVDPDNAVLWRGSMAGNALTQLIRDANWGELDYFLIDMPPGTSDIHLTLVQTLAITGAVVVTTPQDVALADARKGISMFVGEKINVPVLGLVENMSWFTPAELPQNKYYIFGRDGGKNLAEELNIPLLGQIPLVQGICQSGDEGIPVAVRDDSMMGIAFRELAARVVEQVDYRNEHLDPTKVVEVAHR | not soluble
11 | MGSDKIHHHHHHMLELTDDLRIGHPVIDADHQRLIEIINEFLEHSNEVNPQILHETLKSLLAYGREHFAREEGIQRQCLYPYQQGHSNEHKSLLDQVREIARAYFVAKTKPLNATSVQDVNELLKAWLIGHVKKFDTSMRDWVAPSLDMDAPRIKLASPDLAALIISPNERSRARLADLLSELGASKVLQAEDSITGLGMAFGDPVPDFIFCDLETEPLDGGAFAGALRGSNKAYITRIPLLLLHDAEDAEAIQNAMAAGASGVYPKSFNPTNLGRLLNQLLLR | not soluble
12 | TAYLGPAGSWTHQACLDLYGADGLVPLSREALFAAYADGKVERACVPVATSVVGLTPYMEDVLALPRVVVVAEYPKMLGYSLLARPGTRREDIKEVHAHPVAFEEVRPWLEREMPGARRVPAASGGAAAQAVAASATQDKASFGPRVGASVYQLVSLADGIEEGPHNVTRWWVLGRDMP | not soluble
13 | MSLLSEENEFLFDLNEIPEKTVYSDDGDEFLFDLNKIPPREETVNSSDEDFADHLHRRNQATKRKKKLRKRPKVFRHIEKVISFSFYLVLRASSFLFLDLNWGLRMDTDPYQELRMDTDHMTYEQLLQLCNNMGYENSGVKASNIDRCLRNTKPSEFQSLADKICCICQDGFQKRAGVGKLNCGHNFHVNCVKPWILTKK | soluble
14 | MGSDKIHHHHHHMNKTLVIGAAFVDVIVDVPKLPKTGDDIPGNLKSYVVGGSAFNVFGTLKHEKINTDLFVPVGEGNYANQIKEKMRELKIPIKLPVRGNDNGWDISFIEPGGERSFLTIQGIEQDWKTEWFKTININEYKYFYLSGYEMENENAGKVILKELQKRIPESLLLFDASPRISSISKTIIQKIMKKNVIINCNKEEANYFMPKGHSLEEKARRIYAKTESPVIVTLGSNGSYYYDGNDHIIPSEKKDKIINTIGAGDTHCGGILAGLNKDMSFKDSVILANRLSGLVVEKESGSL | not soluble
